Source: patent US20250382602
Changes are numbered by the printed parent chain.

Tests used:
[1] = target: T1, Dda 1993 T210K T210K (Enterobacteria phage T4) (UniProt P32270); conditions: nanopore translocation, PromethION; background mutations not given
T1 sequence: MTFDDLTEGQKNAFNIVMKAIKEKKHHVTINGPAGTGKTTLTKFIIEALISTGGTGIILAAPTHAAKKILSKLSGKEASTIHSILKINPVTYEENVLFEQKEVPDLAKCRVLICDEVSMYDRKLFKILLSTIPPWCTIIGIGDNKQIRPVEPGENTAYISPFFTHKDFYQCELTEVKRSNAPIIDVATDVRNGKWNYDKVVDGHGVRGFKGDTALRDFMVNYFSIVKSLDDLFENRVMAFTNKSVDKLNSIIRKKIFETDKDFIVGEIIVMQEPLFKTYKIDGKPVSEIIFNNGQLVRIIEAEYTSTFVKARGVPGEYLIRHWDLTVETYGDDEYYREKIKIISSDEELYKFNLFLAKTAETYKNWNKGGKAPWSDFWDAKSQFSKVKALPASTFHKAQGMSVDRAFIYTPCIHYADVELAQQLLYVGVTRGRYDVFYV

[2] = target: T2, Dda 1993 T55K T55K (Enterobacteria phage T4) (UniProt P32270); conditions: nanopore translocation, PromethION; background mutations not given
T2 sequence: T1 sequence with T55K, K210T

[3] = target: T3, Dda 1993 N221E N221E (Enterobacteria phage T4) (UniProt P32270); conditions: nanopore translocation, PromethION; background mutations not given
T3 sequence: T1 sequence with K210T, N221E

[4] = target: T4, Dda 1993 T156F T156F (Enterobacteria phage T4) (UniProt P32270); conditions: nanopore translocation, PromethION; background mutations not given
T4 sequence: T1 sequence with T156F, K210T

[5] = target: T5, Dda 1993 Y350E Y350E (Enterobacteria phage T4) (UniProt P32270); conditions: nanopore translocation, PromethION; background mutations not given
T5 sequence: T1 sequence with K210T, Y350E

[6] = target: T6, Dda 1993 K358I K358I (Enterobacteria phage T4) (UniProt P32270); conditions: nanopore translocation, FLO-MIN112; background mutations not given
T6 sequence: T1 sequence with K210T, K358I

“barcoded 3.6 kb DNA analyte ligated to sequencing Y adaptor” showed an activity (bps speed delta vs control) [1] of 0.52, an activity (bps speed delta vs control) [2] of 8.29 and an activity (bps speed delta vs control) [3] of 4.37. For the same substance, the activity (bps speed delta vs control) [4] was 13.8, the activity (bps speed delta vs control) [5] was 6.06 and the activity (bps speed delta vs control) [6] was -5.51.
